Reference: patent publication EP4538286A1 (Adlai Nortye Biopharma Co., Ltd., dated 2025)
Where a chain is given by its changes, count along the chain named. In names and notes the source's numbering stands.

T1: human CTLA4 protein (human, UniProt P16410 37-162, limits assumed)
T1 construct: bought protein coated on the ELISA plate; also called human CTLA4 antigen
T1 sequence (looked up): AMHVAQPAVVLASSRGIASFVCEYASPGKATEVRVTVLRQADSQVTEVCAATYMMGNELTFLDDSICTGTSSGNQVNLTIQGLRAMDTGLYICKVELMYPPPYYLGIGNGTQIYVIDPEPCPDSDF

B1: Abs-264 (other)
heavy: VIHVTKEVKEVATLSCGWNVSVEELVQTRIYWQKNKKMVLTMMSGDMNIWPEYKNRTIFDITNNLSIVILELRPSDEGTYECVVNKYEKDAFKREHLAEVTLSVKADGGGGSGGGGSGGGGSGGGGSGEVQLLESGGGLVQPGGSLRLSCAASGFTFSSYAMSWVRQAPGKGLEWVSGISGSGGFTYYADSVKGRFTISRDNSKNTLYLQMNSLRAEDTAVYYCAKPPRGYNYGPFDYWGQGTLVTVSSASTKGPSVFPLAPCSRSTSESTAALGCLVKDYFPEPVTVSWNSGALTSGVHTFPAVLQSSGLYSLSSVVTVPSSSLGTKTYTCNVDHKPSNTKVDKRVESKYGPPCPPCPAPEFLGGPSVFLFPPKPKDTLMISRTPEVTCVVVDVSQEDPEVQFNWYVDGVEVHNAKTKPREEQFNSTYRVVSVLAVLHQDWLNGKEYKCKVSNKGLPSSIEKTISKAKGQPREPQVYTLPPSQEEMTKNQVSLTCLVKGFYPSDIAVAWESNGQPENNYKTTPPVLDSDGSFFLYSRLTVDKSRWQEGNVFSCSVMHEALHAHYTQKSLSLSLGK
light: SYVLTQPPSVSVAPGQTARITCGGNNIGSKSVHWYQQKPGQAPVLVVYDDSDRPSGIPERFSGSNSGNTATLTISRVEAGDEADYYCQVWDSSSDHVVFGGGTKLTVLGQPKAAPSVTLFPPSSEELQANKATLVCLISDFYPGAVTVAWKADSSPVKAGVETTTPSKQSNNKYAASSYLSLTPEQWKSHRSYSCQVTHEGSTVEKTVAPTECS
notes: the paragraph that names the antibody is followed; also called CD80 IgV mutant H18W/A26V/E35N/A71E/L85N-sugemalimab fusion
B2: Abs-367 (other)
heavy: B1 heavy with W18H, V26A, N35T, E71Q, N85L
light: B1 light
notes: the paragraph that names the antibody is followed; also called CD80 IgV mutant E35T/A71Q-sugemalimab fusion
B3: Abs-359 (other)
heavy: B1 heavy with W18H, V26A, N35S, E71Q, N85L
light: B1 light
notes: CD80 IgV mutant fused to the N-terminus of the sugemalimab heavy chain; also called CD80 IgV mutant E35S/A71Q-sugemalimab fusion
B4: Abs-361 (other)
heavy: B1 heavy with W18H, V26A, N35Q, N85L
light: B1 light
notes: CD80 IgV mutant fused to the N-terminus of the sugemalimab heavy chain; also called CD80 IgV mutant E35Q/A71E-sugemalimab fusion
B5: Abs-355 (other)
heavy: B1 heavy with W18H, V26A, E71Q, N85L
light: B1 light
notes: CD80 IgV mutant fused to the N-terminus of the sugemalimab heavy chain; also called CD80 IgV mutant E35N/A71Q-sugemalimab fusion
B6: Abs-365 (other)
heavy: B1 heavy with W18H, V26A, N35T, N85L
light: B1 light
notes: CD80 IgV mutant fused to the N-terminus of the sugemalimab heavy chain; also called CD80 IgV mutant E35T/A71E-sugemalimab fusion
B7: Abs-360 (other)
heavy: B1 heavy with W18H, V26A, N35S, E71T, N85L
light: B1 light
notes: CD80 IgV mutant fused to the N-terminus of the sugemalimab heavy chain; also called CD80 IgV mutant E35S/A71T-sugemalimab fusion
B8: Abs-358 (other)
heavy: B1 heavy with W18H, V26A, N35S, E71N, N85L
light: B1 light
notes: CD80 IgV mutant fused to the N-terminus of the sugemalimab heavy chain; also called CD80 IgV mutant E35S/A71N-sugemalimab fusion
B9: Abs-356 (other)
heavy: B1 heavy with W18H, V26A, E71T, N85L
light: B1 light
notes: CD80 IgV mutant fused to the N-terminus of the sugemalimab heavy chain; also called CD80 IgV mutant E35N/A71T-sugemalimab fusion
B10: Abs-363 (other)
heavy: B1 heavy with W18H, V26A, N35Q, E71Q, N85L
light: B1 light
notes: CD80 IgV mutant fused to the N-terminus of the sugemalimab heavy chain; also called CD80 IgV mutant E35Q/A71Q-sugemalimab fusion
B11: Abs-364 (other)
heavy: B1 heavy with W18H, V26A, N35Q, E71T, N85L
light: B1 light
notes: CD80 IgV mutant fused to the N-terminus of the sugemalimab heavy chain; also called CD80 IgV mutant E35Q/A71T-sugemalimab fusion
B12: Abs-354 (other)
heavy: B1 heavy with W18H, V26A, E71N, N85L
light: B1 light
notes: CD80 IgV mutant fused to the N-terminus of the sugemalimab heavy chain; also called CD80 IgV mutant E35N/A71N-sugemalimab fusion
B13: Abs-357 (other)
heavy: B1 heavy with W18H, V26A, N35S, N85L
light: B1 light
notes: CD80 IgV mutant fused to the N-terminus of the sugemalimab heavy chain; also called CD80 IgV mutant E35S/A71E-sugemalimab fusion
B14: Abs-362 (other)
heavy: B1 heavy with W18H, V26A, N35Q, E71N, N85L
light: B1 light
notes: CD80 IgV mutant fused to the N-terminus of the sugemalimab heavy chain; also called CD80 IgV mutant E35Q/A71N-sugemalimab fusion
B15: Abs-368 (other)
heavy: B1 heavy with W18H, V26A, N35T, E71T, N85L
light: B1 light
notes: the paragraph that names the antibody is followed; also called CD80 IgV mutant E35T/A71T-sugemalimab fusion

target: PD-L1 on TCR activator PD-L1-CHO cells (UniProt Q9NZQ7 19-290, limits assumed); experiment: cell-based or functional assay
Sequence (Q9NZQ7 19-290 limits assumed): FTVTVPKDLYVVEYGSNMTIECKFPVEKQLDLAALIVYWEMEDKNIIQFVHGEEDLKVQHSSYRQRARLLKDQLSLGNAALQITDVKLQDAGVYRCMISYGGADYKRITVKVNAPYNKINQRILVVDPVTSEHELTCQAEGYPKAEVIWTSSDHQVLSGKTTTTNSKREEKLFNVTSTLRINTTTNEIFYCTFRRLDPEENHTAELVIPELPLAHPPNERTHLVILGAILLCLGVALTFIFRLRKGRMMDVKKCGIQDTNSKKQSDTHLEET

EC50(nM), Jurkat-NFAT-Luc/CHO-PDL1 [nM] | The highest induction relative to 10 nM sugemalimab [%] | Binder
0.82 | 154 | B1
1.84 | 113 | B2
0.88 | 42 | B3
1.13 | 334 | B4
0.56 | 1110 | B5
2.75 | 129 | B6
0.82 | 64 | B7
1.1 | 277 | B8
0.9 | 441 | B9
1 | 121 | B10
1.06 | 150 | B11
0.25 | 1610 | B12
1 | 238 | B13
0.58 | 337 | B14
0.52 | 138 | B15

target: T2, human CD28 protein (human, UniProt P10747 19-152); experiment: ELISA, plate-coated human CD28; design: binding strength @ 100nM: reference not given here
T2 construct: bought protein coated on the ELISA plate; also called human CD28 antigen
T2 sequence (P10747 19-152 limits assumed): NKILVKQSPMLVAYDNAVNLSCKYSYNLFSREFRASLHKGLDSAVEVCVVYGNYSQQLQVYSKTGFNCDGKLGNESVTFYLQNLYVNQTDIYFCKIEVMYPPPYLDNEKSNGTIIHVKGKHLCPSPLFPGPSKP

binding result | EC50 [nM] | binding strength @ 100nM [%] | Binder
no binding |  |  | B1
 | 27.7 | 700 | B2
 | 21.1 | 450 | B3
no binding |  |  | B4
 | 26.8 | 530 | B5
 | 27.9 | 857 | B6
 | 25.9 | 933 | B7
no binding |  |  | B8
 | 27.8 | 733 | B9
no binding |  |  | B10
 | 27.6 | 785 | B11
 | 22.1 | 6300 | B12
 | 26 | 585 | B13
 | 26.1 | 1100 | B14
 | 28.7 | 700 | B15

target: T1, human CTLA4 protein; experiment: ELISA, plate-coated human CTLA4

binding result | EC50 [nM] | binding strength @ 20nM [%] | Binder
no binding |  |  | B1
 | 26.5 | 640 | B2
 | 26.4 | 766 | B3
no binding |  |  | B4
 | 0.236 | 3420 | B5
 | 24.7 | 400 | B6
 | 26.7 | 316 | B7
no binding |  |  | B8
 | 18.5 | 1670 | B9
no binding |  |  | B10
 | 5.45 | 3130 | B11
 | 0.124 | 3010 | B12
 | 17.8 | 1830 | B13
 | 8.39 | 3180 | B14
no binding |  |  | B15
